Entries after “also recorded” stand apart in the source; their conditions may differ.
B1: scFv45: conformation-sensor scFv binding PTP1B-OX, SEQ ID NO: 26 and 78; expressed as intrabody (protein)
scFv: MKKTAIAIAVALAGFATVAQAALTQPSSVSANPGGTVKITCSGSSSAYGYGWYQQKSPGSAPVTVIYNNNKRPSNIPSRFSGSKSGSTGTLTITGVQAEDEAVYFCGSEDSSTDAIFGAGTTLTVLGQSSRSSTVTLDESGGGLQAPGGALSLVCKASGFTFSSYDMGWIRQAPGKGLEYVAGITDNGRYASYGSAVDGRATISRDNGQSSVRLQLNNLRAEDTGTYYCARDDGSGWTGNSIDAWGHGTEVIVSSTSGQAGQHHHHHHGAYPYDVPDYAS
B2: scFv57: scFv binding PTP1B-OX, SEQ ID NO: 27 and 90 (protein)
scFv: MKKTAIAIAVALAGFATVAQAALTQPSSVSANPGAFNKITCSGSSSAYGYGWNQQKSPGSAPVTVIYNNNKRPSNIPSRFSGSKSGSTGTLTITGDQDEDEDFYFCGSEYSSTDAIFGAGTTLTVLGQSSRSSTVTLDESGGGLQAPGGALSLVCKASGFTFSSYDMGWIPQAPGKGLEYVAGITDNGIYASYGSAVDGRATISRDNRQSSVKLQLNNLKADDTGTYYCARDDGSGWTGNSIDAWGHGTEVIVSSTSGQAGQHHHHHHGAYPYDVPDYAS

Biological target: T1, endogenous PTP1B-OX (Homo sapiens, UniProt P18031)
T1 construct: endogenous in cells; host or cells: 293T cells (transfected only with the scFv intrabody)
T1 sequence (P18031 1-435): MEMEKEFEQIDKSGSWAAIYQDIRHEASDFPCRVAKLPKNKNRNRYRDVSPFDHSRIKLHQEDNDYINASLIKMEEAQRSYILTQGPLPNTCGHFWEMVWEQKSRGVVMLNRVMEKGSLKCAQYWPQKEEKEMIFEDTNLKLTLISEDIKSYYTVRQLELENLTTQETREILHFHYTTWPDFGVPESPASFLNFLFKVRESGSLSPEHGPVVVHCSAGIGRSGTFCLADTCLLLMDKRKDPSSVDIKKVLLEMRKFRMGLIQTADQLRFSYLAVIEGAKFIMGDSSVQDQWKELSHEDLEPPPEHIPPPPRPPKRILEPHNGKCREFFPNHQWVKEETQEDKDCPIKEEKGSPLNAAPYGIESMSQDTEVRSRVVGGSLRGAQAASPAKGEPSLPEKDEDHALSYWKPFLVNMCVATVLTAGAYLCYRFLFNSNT
Assay: Intrabody interaction in 293T cells treated with H2O2 (Ni-NTA pull down / anti-PTP1B immunoprecipitation)
Type: cell-based
Settings: 1 mM H2O2 5 minutes, FIGS. 11, 12
How it was run: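 293T cells transiently expressing HA-detected scFv intrabodies, serum-starved 16 h, then 1 mM H2O2 for 5 min or 20 mM NAC for 1 h at 37 °C (NAC lysates with 2 mM TCEP). Complexes from 1 mg lysate captured by Ni-NTA pull-down or anti-PTP1B (FG6) IP; PTP1B and intrabody detected by immunoblot.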

Molecule | binding of intrabody to endogenous PTP1B-OX
B1 | interaction between scFv45 and PTP1B-OX was observed; also recorded: co-pulldown of PTP1B-OX in the presence of H2O2
B2 | bound to endogenous PTP1B-OX strongly

Source: patent publication US9074002B2, “PTP1B inhibitors” (Cold Spring Harbor Laboratory, priority 2009, dated 2015)
